Reference: patent EP4786499A1 (Guangdong Fapon Biopharma Inc., dated 2026)
Each block holds one binder with its values, some of them ahead of it.

Assays:
human PD1 [1] = target: T1, human PD1 (human, UniProt Q15116 25-288); experiment: FACS on CHO/human PD-1 cells
T1 construct: whole, on cells; also called hPD1; CHO-hPD1

mouse PD-1 = target: T2, mouse PD-1 (mouse, UniProt Q02242 25-288); experiment: FACS on CHO/mouse PD-1 cells
T2 construct: whole, on cells; also called CHO/mouse PD-1
T2 sequence (looked up): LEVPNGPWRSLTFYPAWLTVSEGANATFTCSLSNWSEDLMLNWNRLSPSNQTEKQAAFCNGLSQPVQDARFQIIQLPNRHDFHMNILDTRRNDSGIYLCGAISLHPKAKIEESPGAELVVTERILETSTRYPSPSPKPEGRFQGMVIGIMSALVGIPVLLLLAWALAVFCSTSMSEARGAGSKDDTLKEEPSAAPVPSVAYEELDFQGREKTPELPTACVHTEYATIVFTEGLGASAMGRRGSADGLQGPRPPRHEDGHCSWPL

cyno IL10R1 = target: T3, cyno IL10R1 (cyno, UniProt A0A2K5WJ66 22-576); experiment: FACS on CHO/cyno IL10R1 cells
T3 construct: whole, on cells; also called CHO/cyno IL10R1; monkey IL10R1
T3 sequence: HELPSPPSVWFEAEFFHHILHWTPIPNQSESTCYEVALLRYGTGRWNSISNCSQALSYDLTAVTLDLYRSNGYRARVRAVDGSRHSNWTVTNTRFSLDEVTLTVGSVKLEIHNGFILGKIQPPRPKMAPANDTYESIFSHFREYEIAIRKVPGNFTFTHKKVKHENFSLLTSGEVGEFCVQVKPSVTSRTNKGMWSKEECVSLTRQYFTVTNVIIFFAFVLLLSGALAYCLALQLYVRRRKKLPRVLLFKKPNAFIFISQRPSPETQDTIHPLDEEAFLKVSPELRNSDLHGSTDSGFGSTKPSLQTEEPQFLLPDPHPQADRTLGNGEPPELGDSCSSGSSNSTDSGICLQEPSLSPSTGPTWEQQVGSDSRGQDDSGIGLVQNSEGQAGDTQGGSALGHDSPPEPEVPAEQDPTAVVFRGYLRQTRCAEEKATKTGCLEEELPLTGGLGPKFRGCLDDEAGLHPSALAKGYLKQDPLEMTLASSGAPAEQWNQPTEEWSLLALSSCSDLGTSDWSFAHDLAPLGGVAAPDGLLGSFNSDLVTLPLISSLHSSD

human IL10R1 = target: T4, human IL10R1 (human, UniProt Q13651 22-578); experiment: FACS on CHO/human IL10R1 cells
T4 construct: whole, on cells; also called CHO/human IL10R1
T4 sequence (looked up): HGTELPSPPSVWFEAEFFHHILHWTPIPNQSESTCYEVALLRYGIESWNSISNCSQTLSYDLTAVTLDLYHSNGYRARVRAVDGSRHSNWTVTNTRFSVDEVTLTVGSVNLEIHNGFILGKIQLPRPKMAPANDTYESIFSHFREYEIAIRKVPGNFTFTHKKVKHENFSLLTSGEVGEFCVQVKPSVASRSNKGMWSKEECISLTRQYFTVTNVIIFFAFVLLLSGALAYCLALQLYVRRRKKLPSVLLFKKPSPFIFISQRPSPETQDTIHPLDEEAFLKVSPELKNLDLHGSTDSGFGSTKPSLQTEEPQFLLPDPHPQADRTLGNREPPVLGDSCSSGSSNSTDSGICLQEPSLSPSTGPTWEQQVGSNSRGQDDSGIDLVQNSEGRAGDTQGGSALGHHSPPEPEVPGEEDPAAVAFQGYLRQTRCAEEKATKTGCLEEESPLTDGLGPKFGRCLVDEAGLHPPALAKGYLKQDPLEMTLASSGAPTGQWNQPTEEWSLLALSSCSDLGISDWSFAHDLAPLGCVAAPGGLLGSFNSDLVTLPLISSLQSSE

mouse IL10R1 = target: T5, mouse IL10R1 (mouse, UniProt Q61727 17-575); experiment: FACS on CHO/mouse IL10R1 cells
T5 construct: whole, on cells; also called CHO/mouse IL10R1
T5 sequence (looked up): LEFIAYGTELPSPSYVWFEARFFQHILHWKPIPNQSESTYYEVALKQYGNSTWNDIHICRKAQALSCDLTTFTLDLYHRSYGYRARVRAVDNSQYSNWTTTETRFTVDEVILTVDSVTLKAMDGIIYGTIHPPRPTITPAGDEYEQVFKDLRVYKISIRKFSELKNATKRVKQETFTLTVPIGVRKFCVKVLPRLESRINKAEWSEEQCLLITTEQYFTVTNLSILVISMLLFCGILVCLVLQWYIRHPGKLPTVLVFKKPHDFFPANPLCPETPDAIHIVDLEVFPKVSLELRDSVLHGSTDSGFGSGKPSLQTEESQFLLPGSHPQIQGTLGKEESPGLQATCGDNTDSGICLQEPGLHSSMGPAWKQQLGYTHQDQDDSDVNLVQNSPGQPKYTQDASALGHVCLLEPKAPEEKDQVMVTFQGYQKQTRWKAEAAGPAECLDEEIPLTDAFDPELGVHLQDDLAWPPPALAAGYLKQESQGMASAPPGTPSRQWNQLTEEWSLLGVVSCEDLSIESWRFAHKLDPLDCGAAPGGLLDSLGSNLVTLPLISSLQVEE

human PD1 [2] = target: T1, human PD1; experiment: cell-based or functional assay
cyno PD-1 = target: T6, cyno PD-1 (cyno, UniProt B0LAJ3 25-288); experiment: FACS on CHO/cyno PD-1 cells
T6 construct: also called CHO/cyno PD-1; monkey PD-1

human PD1 [3] = target: T1, human PD1; experiment: FACS binding on CHO/human PD-1 cells (Example 12)
human PD1 [4] = target: T1, human PD1; experiment: FACS: blocking of human PD-L1-mFC (1 µg/mL) binding to CHO/human PD-1 cells

T1 sequence (Q15116 25-288): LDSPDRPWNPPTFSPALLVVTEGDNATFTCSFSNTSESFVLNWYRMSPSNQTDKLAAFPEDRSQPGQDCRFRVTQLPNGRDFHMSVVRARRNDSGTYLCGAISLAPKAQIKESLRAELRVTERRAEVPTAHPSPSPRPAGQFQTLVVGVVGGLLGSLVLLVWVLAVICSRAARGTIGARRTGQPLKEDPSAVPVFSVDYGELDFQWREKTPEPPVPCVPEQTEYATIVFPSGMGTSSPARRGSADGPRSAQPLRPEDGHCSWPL
T6 sequence (B0LAJ3 entry or part of it limits assumed, form in doubt): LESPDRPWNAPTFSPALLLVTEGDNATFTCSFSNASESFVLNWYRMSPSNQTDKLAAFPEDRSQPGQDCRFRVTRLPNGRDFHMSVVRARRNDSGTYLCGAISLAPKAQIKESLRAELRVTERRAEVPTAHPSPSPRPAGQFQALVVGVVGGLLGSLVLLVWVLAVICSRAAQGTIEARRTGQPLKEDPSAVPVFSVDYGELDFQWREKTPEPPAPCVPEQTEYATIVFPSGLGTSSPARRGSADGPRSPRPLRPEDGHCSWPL

binding result (human PD1 [1]): no binding
binding result (mouse PD-1): no binding
binding result (cyno IL10R1): no binding
binding result (human IL10R1): no binding
binding result (mouse IL10R1): no binding
B1: R0862, hIgG1 antibody containing an L234A/L235A mutation (antibody, V domains shown)
VH: QVQLVESGGGVVQPGRSLRLSCAASGFTFSSYGMHWVRQAPGKGLEWVAAIWYDGSNKYYTDSVKGRFTISRDNSKNTLYLQMNSLRAEDTAVYYCARDLRGVMYFDLWGRGTLVTVSS
VL: EIVLTQSPATLSLSPGERATLSCRASQSVSRYLAWYQQKPGQAPRLLIYDASNRATGIPARFSGSGSGTDFTLTISSLEPEDFAVYYCQLRNNWPLTFGGGTKVEIKR
notes: Isotype control; also called ISO-hIgG1.8; copies: 2 + 2

EC50 of luciferase reporter gene activity (CHO-OKT3-hPD-L1 cells + Jurkat-NFAT-luc-hPD-1 cells) (human PD1 [2]): 6.84 nM
EC50 (cyno PD-1): 3.47 nM
EC50 (human PD1 [1]): 5.47 nM
binding result (mouse PD-1): no binding
EC50 (human PD1 [3]): 7.75 nM
IC50 (human PD1 [4]): 8.34 nM
B2: anti-PD1 antibody R1152 (antibody, human IgG1, kappa, L234A L235A, V domains shown)
VH: QVQLVQSGAEVKKPGASVKVSCKASGYTFTTYYMYWVRQAPGQGLEWMGGINPSNGGTNYAQKFQGRATMTVDTSTSTAYMELSSLRSEDTAVYYCTRRDSNYDGGFDYWGQGTTVTVSS
VL: DIQMTQSPSSLSASVGDRVTITCRASKSVSTSGYSYMHWYQQKPGKAPKLLIYLAYHLESGVPSRFSGSGSGTDFTLTISSLQPEDFATYYCQHSWELPITFGQGTKLEIKR
notes: also called PD1 monoclonal antibody R1152; PD-1 parent antibody
